This is an account of results in patent US20230051715A1 (MABWELL THERAPEUTICS, published 2023).

Experiment [1] deals with T1, human C1s deletion mutant 2 (NHC) (human, UniProt P09871 16-437).
T1 construct: C-terminal 6xHis tag; also called HuC1s(NHC); huC1sNHC
T1 sequence: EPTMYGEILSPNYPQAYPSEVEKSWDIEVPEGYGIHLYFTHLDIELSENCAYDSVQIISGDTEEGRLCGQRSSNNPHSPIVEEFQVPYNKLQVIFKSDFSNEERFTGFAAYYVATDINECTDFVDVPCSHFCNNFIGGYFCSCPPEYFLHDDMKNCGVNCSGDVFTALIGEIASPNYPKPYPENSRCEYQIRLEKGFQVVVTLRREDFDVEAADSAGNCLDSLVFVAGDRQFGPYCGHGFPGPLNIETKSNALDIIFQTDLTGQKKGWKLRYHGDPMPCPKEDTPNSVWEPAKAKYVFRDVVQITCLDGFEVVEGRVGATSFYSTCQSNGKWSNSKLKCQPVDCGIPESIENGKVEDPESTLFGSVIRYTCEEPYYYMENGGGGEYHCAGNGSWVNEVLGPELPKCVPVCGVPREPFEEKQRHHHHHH
Description: ELISA, plate coated with 200 ng/well HuC1s(NHC), OD450nm. On the procedure:
(§1) ELISA was carried out by first coating 96-well plates with 200 ng/well of full-length or truncated C1s proteins overnight. The next morning, plates were blocked with SuperBlock T20 blocking buffer (Thermo Scientific 37536) for 1 h with gentle shaking. Then, various concentrations of anti-C1s antibodies diluted in SuperBlock T20 blocking buffer were added to the plates and incubated for 1 h with gentle shaking. Mouse IgG (Sigma-Aldrich 15381) and human IgG1 (BioXCell BP0297) were used as negative controls. The plates were washed before incubating with HRP conjugated secondary antibodies diluted in SuperBlock T20 blocking buffer (goat anti-mouse IgG (H+L) cross-adsorbed secondary antibody HRP (Invitrogen G-21040) or goat anti-human IgG antibody, HRP conjugate (Millipore AP309P)) for 1 h with gentle shaking. At last, the plates were washed and color developed with ELISA liquid HRP substrate (Sigma-Aldrich), followed by stopping the reaction with addition of 1M H₂SO₄ in the same volume as the ELISA liquid substrate. Bound antibody was measured by absorbance at OD₄₅₀ₙₘ.

Experiment [2] addresses T2, human C1s mutant M18 (V288T) (human, UniProt P09871 16-688).
T2 construct: The entry is the mutant itself
T2 sequence: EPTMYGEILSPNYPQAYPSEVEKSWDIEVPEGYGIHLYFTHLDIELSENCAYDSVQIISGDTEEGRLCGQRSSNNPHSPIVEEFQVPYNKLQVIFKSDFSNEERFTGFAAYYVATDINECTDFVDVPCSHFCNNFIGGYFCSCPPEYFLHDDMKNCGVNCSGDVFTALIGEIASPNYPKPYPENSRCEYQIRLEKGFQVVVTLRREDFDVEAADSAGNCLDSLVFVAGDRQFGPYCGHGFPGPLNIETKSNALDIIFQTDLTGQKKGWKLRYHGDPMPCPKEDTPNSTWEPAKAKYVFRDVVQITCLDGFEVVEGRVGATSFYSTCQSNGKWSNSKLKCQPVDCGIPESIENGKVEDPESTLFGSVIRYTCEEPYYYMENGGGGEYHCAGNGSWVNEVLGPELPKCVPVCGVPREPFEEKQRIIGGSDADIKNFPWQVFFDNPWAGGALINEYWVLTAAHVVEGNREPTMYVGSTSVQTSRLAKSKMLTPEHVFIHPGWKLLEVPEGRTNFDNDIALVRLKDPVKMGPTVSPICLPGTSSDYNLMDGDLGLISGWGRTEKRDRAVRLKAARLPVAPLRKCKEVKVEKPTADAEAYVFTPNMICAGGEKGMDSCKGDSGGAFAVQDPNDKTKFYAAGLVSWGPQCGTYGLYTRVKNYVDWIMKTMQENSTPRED
Description: ELISA, plate coated with human C1s mutant M18: V288T, OD450nm. How it is done: as §1
(§2) Binding of anti-C1s antibodies to mutants M1-M20 of human C1s was measured by ELISA as described in Example 4, and results are shown in FIGS. 6B-6U. All anti-C1s humanized variants including hz2-7(H1L2), hz2-8(H1L2 G80A) and hz2-8(H1L2 G80A/T82A) maintained strong binding properties to the majority (16 out of 20) of C1s mutants including M1 (FIG. 6B), M2 (FIG. 6C), M3 (FIG. 6D). M4 (FIG. 6E), M7 (FIG. 6H), M8 (FIG. 6I), M10 (FIG. 6K), M11 (FIG. 6L), M12 (FIG. 6M), M13 (FIG. 6N), M15 (FIG. 6P), M16 (FIG. 6Q), M17 (FIG. 6R), M18 (FIG. 6S), M19 (FIG. 6T) and M20 (FIG. 6U).

Experiment [3] deals with T3, human C1s mutant M3 (M277I, P278S & N329D) (human, UniProt P09871 16-688).
T3 construct: The entry is the mutant itself
T3 sequence: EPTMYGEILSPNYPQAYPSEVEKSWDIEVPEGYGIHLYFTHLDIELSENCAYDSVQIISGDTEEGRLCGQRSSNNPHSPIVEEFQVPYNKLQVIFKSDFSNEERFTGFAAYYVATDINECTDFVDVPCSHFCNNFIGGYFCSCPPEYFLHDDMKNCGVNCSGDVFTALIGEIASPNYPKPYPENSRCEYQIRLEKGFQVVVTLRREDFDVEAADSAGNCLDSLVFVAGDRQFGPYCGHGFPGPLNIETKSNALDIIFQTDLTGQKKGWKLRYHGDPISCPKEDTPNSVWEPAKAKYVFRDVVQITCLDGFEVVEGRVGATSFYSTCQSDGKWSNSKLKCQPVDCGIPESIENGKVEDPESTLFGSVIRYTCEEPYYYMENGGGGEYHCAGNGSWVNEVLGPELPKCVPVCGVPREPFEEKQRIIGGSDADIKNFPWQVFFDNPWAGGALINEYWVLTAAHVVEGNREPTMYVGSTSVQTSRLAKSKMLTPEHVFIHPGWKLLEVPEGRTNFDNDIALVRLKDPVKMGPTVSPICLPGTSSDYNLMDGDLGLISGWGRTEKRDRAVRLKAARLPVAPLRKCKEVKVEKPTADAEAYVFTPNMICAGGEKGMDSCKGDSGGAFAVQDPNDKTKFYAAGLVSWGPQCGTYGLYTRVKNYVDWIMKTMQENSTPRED
Nature of the experiment: ELISA, plate coated with human C1s mutant M3: M277I, P278S, N329D, OD450nm. How it is done:
as §1, §2

B1: Anti-C1s antibody 2-8 (antibody, V domains shown)
VH: EVQLQQSGAELVRPGALVKLSCKASGFNIKEYYMHWVKQRPEQGLEWIGWIDPENGDTIYDPKFQGKASITADTSSNTAYLQLSSLTSEDTAVYYCARSRLFFAYWGQGTLVTVSA
VL: DIVMTQSHKFMSTSVGDRVSFTCKASQDVRTAVDWYQQKPGQSPKLLIYSASYRYTGVPDRFTGTGSGTDFTFTISSVQAEDLAVYFCQQQYTTPYTFGGGTKLEIKT
notes: the HC/LC entries may hold it too; also called clone 2-8
Turning to B1, in experiment [1], the EC50 was found to be 12 ng/mL.

B2: Anti-C1s antibody hz2-7(H1L2) (antibody, V domains shown)
VH: EVQLLESGGGLVQPGGSLRLSCAASGFTFSNYFMNWVRQAPGKGLEWVSEIRLKFTNYATHYADSVKGRFTISRDDSKSTLYLQMNSLRAEDTAVYYCTRDYGSRNGYFDYWGQGTLVTVSS
VL: DIVMTQTPLSLPVTPGEPASISCRSSKSLLHSNGNTFLYWFLQKPGQSPQLLIYRMSNLASGVPDRFSGSGSGTDFTLKISRVEAEDVGVYYCMQHLEYPYTFGGGTKLEIKR
notes: Humanized, human IgG1 / kappa; also called hz2-7(1L2)
B2: the EC50 in experiment [2] was found to be 5 ng/mL; in experiment [1], 6 ng/mL; in experiment [3] it was 8 ng/mL.

B3: Anti-C1s antibody 2-7 (antibody, human IgG1, kappa, V domains shown)
VH: EVKLEESGGGLVPPGGSMKLSCVASGFTFSNYFMNWVRQSPEKGLEWVAEIRLKFTNYATHYAESVEGRFTISRDDSKSSVYLQMNNLRAEDTGIYYCTRDYGSRNGYFDYWGQGTTLTVSS
VL: DIVMTQAAPSVPVTPGESVSISCRSSKSLLHSNGNTFLYWFLQRPGQSPQLLIYRMSNLASGVPDRFSGSGSGTAFTLRVSRVEAEDVGIYYCMQHLEYPYTFGGGTKLEIKT
notes: the HC/LC entries may hold it too; also called clone 2-7
The molecule B3 yielded an EC50 in experiment [1] of 9 ng/mL.

B4: Anti-C1s antibody hz2-8 (H1L2 G80A) (antibody, V domains shown)
VH: QVQLVQSGAEVKKPGASVKVSCKASGFNIKEYYMHWVRQAPEQGLEWMGWIDPENADTIYAQKFQGRVTITADTSTNTAYMELSSLRSEDTAVYYCARSRLFFAYWGQGTLVTVSS
VL: DIQMTQSPKSLSASVGDRVTITCRASQDVRTALDWYQQKPGQSPKLLIYSASYRYSGVPSRFSGSGSGTDFTLTISSLQPEDFATYYCQQQYTTPYTFGQGTKLEIKR
notes: Humanized variant with G80A in HC CDR2 (already in the entry), human IgG1 / kappa
B4: the EC50 in experiment [2] worked out at 3 ng/mL; in experiment [3], 6 ng/mL.

B5: Anti-C1s antibody hz2-8 (H1L2 G80A/T82A) (antibody, V domains shown)
VH: QVQLVQSGAEVKKPGASVKVSCKASGFNIKEYYMHWVRQAPEQGLEWMGWIDPENADAIYAQKFQGRVTITADTSTNTAYMELSSLRSEDTAVYYCARSRLFFAYWGQGTLVTVSS
VL: DIQMTQSPKSLSASVGDRVTITCRASQDVRTALDWYQQKPGQSPKLLIYSASYRYSGVPSRFSGSGSGTDFTLTISSLQPEDFATYYCQQQYTTPYTFGQGTKLEIKR
notes: Humanized variant with G80A and T82A in HC CDR2 (already in the entry), human IgG1 / kappa
For the molecule B5, the concentration giving a half-maximal response (EC50) in experiment [2] and in experiment [3] was 4 ng/mL each time.

Usually EC50 stands for the concentration needed to bring the measured effect to its halfway point. The low end stands for an effect from little substance, the high end for a need for much substance.
